Laboratory results from the RNAGym collection of RNA variant scans (doi:10.7554/elife.90254).

B1: LINE1-mini (parent)
chain: GGCAGAGCUCAACACAGCGUGGCAAAGUGGCUGUGGCUAGACUGCC

Variants of: B1
Experiment: self-cleavage, relative activity (ratio to wild type); higher = more cleavage; in vitro, sequencing; the parent is a self-cleaving ribozyme

Compared with G21C A26U, G21C A26G is lower in self-cleavage: 1.57 for the first, 0.35 for the second.

Compared with G21C A26C, G21C A41C is lower in self-cleavage: 1.03 for the first, 0.07 for the second.

First: U20G G21C
Second: U20G G21U
The self-cleavage of the first is lower: 0.46 for the first, 0.97 for the second.

First: U20G G21A
Second: G21A U28A
The self-cleavage of the first is lower: 0.69 for the first, 1.94 for the second.

Compared with G21A U28C, G21A U28G is lower in self-cleavage: 1.44 for the first, 1.2 for the second.

Going from U20G A41U to U20G A41C, the self-cleavage falls from 0.42 to 0.02.

Compared with U20G A41G, G21A C42U is higher in self-cleavage: 0.19 for the first, 1.82 for the second.

Going from G21A C42A to G21A C42G, the self-cleavage falls from 0.54 to 0.06.

Going from G21A G30U to G21A G30A, the self-cleavage falls from 2.01 to 1.73.

First: G21A G30C
Second: G21A C31G
The self-cleavage of the first is higher: 0.61 for the first, 0.13 for the second.

Going from G21A C31A to G21A C31U, the self-cleavage rises from 0.12 to 0.63.

First: U20G A39U
Second: U20G A39C
The self-cleavage of the first is higher: 0.56 for the first, 0.13 for the second.

First: U20G A39G
Second: G21A G35A
The self-cleavage of the first is lower: 0.07 for the first, 0.15 for the second.

Going from G21A G35U to G21A G35C, the self-cleavage falls from 0.35 to 0.19.

Going from G21C A39U to G21C A39C, the self-cleavage falls from 0.81 to 0.07.

Compared with G21C A39G, U20G G22A is higher in self-cleavage: 0.05 for the first, 0.55 for the second.

Compared with U20G G22U, U20G G22C is lower in self-cleavage: 0.51 for the first, 0.41 for the second.

Going from U20G G30U to U20G G30A, the self-cleavage rises from 0.47 to 0.66.

Compared with U20G G30C, U20G C23A is higher in self-cleavage: 0.3 for the first, 0.48 for the second.

First: U20G C23G
Second: U20G C23U
The self-cleavage of the first is lower: 0.38 for the first, 0.54 for the second.

First: U20G G35U
Second: U20G G35A
The self-cleavage of the first is higher: 0.12 for the first, 0.06 for the second.

Compared with U20G G35C, G21A G29A is higher in self-cleavage: 0.11 for the first, 1 for the second.

Going from G21A G29U to G21A G29C, the self-cleavage falls from 2.19 to 0.63.

First: G21A
Second: G21C
The self-cleavage of the first is higher: 2.19 for the first, 0.72 for the second.

Going from U20G U43C to U20G U43A, the self-cleavage falls from 0.04 to 0.03.

U20G U43G and U20G U38G are the same in self-cleavage: 0.02 for the first, 0.02 for the second.

Compared with U20G U38A, U20G U38C is higher in self-cleavage: 0.2 for the first, 0.26 for the second.

Going from G21A A41C to G21A A41U, the self-cleavage rises from 0.12 to 0.83.

Going from G21A A41G to U20G C45A, the self-cleavage falls from 0.44 to 0.29.

First: U20G C45G
Second: U20G C45U
The self-cleavage of the first is lower: 0.25 for the first, 1.62 for the second.

First: G21C A24C
Second: G21C A24G
The self-cleavage of the first is lower: 0.43 for the first, 0.44 for the second.

First: G21C A24U
Second: G21A G40C
The self-cleavage of the first is higher: 0.63 for the first, 0.22 for the second.

First: G21A G40U
Second: G21A G40A
The self-cleavage of the first is lower: 0.19 for the first, 0.29 for the second.

Going from U20G G33U to U20G G33C, the self-cleavage falls from 0.08 to 0.06.

Going from U20G G33A to G21A U43C, the self-cleavage rises from 0.09 to 0.18.

First: G21A U43A
Second: G21A U43G
The self-cleavage of the first is higher: 0.17 for the first, 0.14 for the second.

Compared with G21A G33A, G21A G33C is higher in self-cleavage: 0.08 for the first, 0.12 for the second.

First: G21A G33U
Second: G21A A24U
The self-cleavage of the first is lower: 0.26 for the first, 2.52 for the second.

Compared with G21A A24C, G21A A24G is higher in self-cleavage: 1.61 for the first, 2.26 for the second.

First: U20G G27U
Second: U20G G27A
The self-cleavage of the first is lower: 0.25 for the first, 0.72 for the second.

First: U20G G27C
Second: G21A U32G
The self-cleavage of the first is higher: 0.38 for the first, 0.1 for the second.

Going from G21A U32A to G21A U32C, the self-cleavage rises from 0.08 to 0.48.

Going from U20G U28A to U20G U28G, the self-cleavage rises from 0.17 to 0.51.

Compared with U20G U28C, G21A G36C is lower in self-cleavage: 0.67 for the first, 0.1 for the second.

Compared with G21A G36A, G21A G36U is lower in self-cleavage: 0.3 for the first, 0.15 for the second.

Compared with G21A U38A, G21A U38G is lower in self-cleavage: 0.89 for the first, 0.03 for the second.

Going from G21A U38C to U20G A26C, the self-cleavage falls from 1.12 to 0.47.

First: U20G A26G
Second: U20G A26U
The self-cleavage of the first is higher: 0.43 for the first, 0.3 for the second.

Compared with U20G U34G, U20G U34A is lower in self-cleavage: 0.14 for the first, 0.06 for the second.

Compared with U20G U34C, G21A G44C is higher in self-cleavage: 0.39 for the first, 0.52 for the second.

Compared with G21A G44U, G21A G44A is higher in self-cleavage: 0.56 for the first, 0.98 for the second.

Compared with U20G G40U, U20G G40A is lower in self-cleavage: 0.13 for the first, 0.06 for the second.

First: U20G G40C
Second: U20G G29A
The self-cleavage of the first is lower: 0.04 for the first, 1.02 for the second.

First: U20G G29U
Second: U20G G29C
The self-cleavage of the first is higher: 0.48 for the first, 0.35 for the second.

Going from G21A C45A to G21A C45U, the self-cleavage rises from 0.97 to 2.04.

Going from G21A C45G to U20G U32A, the self-cleavage falls from 0.26 to 0.07.

First: U20G U32C
Second: U20G U32G
The self-cleavage of the first is lower: 0.06 for the first, 0.09 for the second.

Going from U20G G44C to U20G G44U, the self-cleavage falls from 0.26 to 0.23.

Going from U20G G44A to G21C A25C, the self-cleavage rises from 0.25 to 0.85.

Compared with G21C A25U, G21C A25G is lower in self-cleavage: 1.14 for the first, 0.94 for the second.

First: G21A G27C
Second: G21A G27U
The self-cleavage of the first is lower: 1.22 for the first, 1.35 for the second.

Going from G21A G27A to G21A A25U, the self-cleavage rises from 1.01 to 1.75.

First: G21A A25G
Second: G21A A25C
The self-cleavage of the first is lower: 1.4 for the first, 2.37 for the second.

Compared with G21A C23G, G21A C23U is higher in self-cleavage: 0.78 for the first, 1.02 for the second.

Going from G21A C23A to G21A A26U, the self-cleavage rises from 1.07 to 1.89.

Going from G21A A26G to U20G C31A, the self-cleavage falls from 1.94 to 0.07.

First: U20G C31U
Second: U20G C31G
The self-cleavage of the first is higher: 0.11 for the first, 0.04 for the second.

First: G21A U34G
Second: G21A U34C
The self-cleavage of the first is higher: 0.64 for the first, 0.14 for the second.

Compared with G21A U34A, G21A A39C is higher in self-cleavage: 0.08 for the first, 0.68 for the second.

Going from G21A A39U to G21A A39G, the self-cleavage falls from 1.82 to 0.14.

Going from U20G C42U to U20G C42A, the self-cleavage falls from 0.17 to 0.1.

First: U20G C42G
Second: U20G G36U
The self-cleavage of the first is higher: 0.14 for the first, 0.07 for the second.

First: U20G G36A
Second: U20G G36C
The self-cleavage of the first is lower: 0.08 for the first, 0.09 for the second.

First: G21A G22U
Second: G21A G22C
The self-cleavage of the first is higher: 0.56 for the first, 0.38 for the second.

Compared with G21A G22A, G21A C46G is higher in self-cleavage: 1.3 for the first, 1.5 for the second.

Going from G21A C46U to G21A C46A, the self-cleavage rises from 1.39 to 1.96.

Compared with U20G A24G, U20G A24U is lower in self-cleavage: 0.61 for the first, 0.54 for the second.

First: U20G A24C
Second: U20G C37G
The self-cleavage of the first is higher: 0.28 for the first, 0.07 for the second.

First: U20G C37U
Second: U20G C37A
The self-cleavage of the first is higher: 0.06 for the first, 0.02 for the second.

Compared with U20G C46U, U20G C46G is higher in self-cleavage: 0.44 for the first, 0.45 for the second.

Compared with U20G C46A, U20G A25G is lower in self-cleavage: 0.78 for the first, 0.48 for the second.

Compared with U20G A25U, U20G A25C is lower in self-cleavage: 1.21 for the first, 0.19 for the second.

Going from G21A C37G to G21A C37U, the self-cleavage rises from 0.04 to 0.07.

Work on G21A C37A yielded a self-cleavage of 0.08.
